{"source": "patent US20210032330A1", "about": "(PHANES THERAPEUTICS, published 2021)", "binders": {"B1": {"name": "Chimeric (antibody, V domains shown)", "VH": "QVQLQQSGAELVKPGASVKLSCKASGYTFTSSDINWVRQRPEQGLEWIGWIFPGDGSTKYNEKFKGKATLTTDKSSSTAYMQLSRLTSEDSAVYFCARGLDYWGQGTTLTVSS", "VL": "DIKMTQSPSSMYASLGERVTITCKASQDINSYLGWFQQKPGKSPKTLIYRADRLVDGVPSRFSGSGSGQDYSLTISSLEYEDMGIYYCLQYDEFPLTFGAGTKLELK", "notes": "detected with anti-human IgG-HRP; also called chimeric version of anti-TIM-3 mAb 16-K5-A"}, "B2": {"name": "H5L5 (antibody, V domains shown)", "VH": "QVQLQESGPGLVKPSETLSLTCTASGYTFTSSDINWVRQPPGKGLEWIGWIFPGDGSTKYNPSLKSRATLSTDKSKNQASLNLDSVSAADTAIYFCARGLDYWGKGSTVTVSS", "VL": "DIQMTQSPSSLSASVGDRVTITCKASQDINSYLGWFQQKPGKAPKTLIYRADRLVDGVPSRFSGSGSGQDYTFTISSLQPEDIATYYCLQYDEFPLTFGPGTKVDIK", "notes": "also called humanized version of anti-TIM-3 mAb 16-K5-A, VH H5 with VL L5"}, "B3": {"name": "H7L5 (antibody, V domains shown)", "VH": "B2 VH with T23K, D84S, S87T, I93V, S107T", "VL": "B2 VL", "notes": "also called humanized version of anti-TIM-3 mAb 16-K5-A, VH H7 with VL L5"}, "B4": {"name": "H1L1 (antibody, V domains shown)", "VH": "EVQLVESGGGLVQPGGSLRLSCAASGYTFTSSDINWVRQAPGKGLVWIGWIFPGDGSTKYTPSLKDQATLSTDKAKNTAYLQMNSLRAEDTAVYFCARGLDYWGQGTLVTVSS", "VL": "B2 VL with P100Q, V104L, D105E", "notes": "also called humanized version of anti-TIM-3 mAb 16-K5-A, VH H1 with VL L1"}, "B5": {"name": "H2L1 (antibody, V domains shown)", "VH": "B4 VH with K74L", "VL": "B2 VL with P100Q, V104L, D105E", "notes": "also called humanized version of anti-TIM-3 mAb 16-K5-A, VH H2 with VL L1"}, "B6": {"name": "12-M11-A (antibody, V domains shown)", "VH": "QVQLQQSGAELAKPGASVKMSCKASGYFTSYWMHWVKQRPGQGLEWIGYINPITGYTEYNQKFKDKATLTADKSSSTAYMQLSRLTSEDSAVYYCARGVENFDYLYAMDYWGQGASVTVSS", "VL": "QIVLTQSPAIMSASPGEKVTMTCSASSSISYMHWYQQKPGTSPKRWIYDTSKLASGVPTRFNGSGSGTSYSLTISSMEAEDAATYYCHQRSSYRTFGGGTKLEIK", "notes": "also called anti-TIM-3 monoclonal antibody 12-M11-A"}, "B7": {"name": "anti-TIM-3 monoclonal antibody 5-K4-A (antibody, V domains shown)", "VH": "EVQLQQSGPELVKTGASVKISCKASGYSFTAYYIHWVKQSHGKSLEWIGHISCFNGATSYNQKFKGKATFTVDTSSSTAYMQFNSLTSEDSAVYYCARRGDFDRPEFAYWGQGTLVTVSA", "VL": "DIVLTQSPASLAVSLGQRATISCRASESVEYYGTSLMQWYQQKPGQPPKLLIYAASNVESGVPARFSGSGSGTDFSLNIHPVEEDDIAMYFCQQSRKVPWTFGGGTKLEIK", "notes": "Mouse hybridoma mAb; captured on anti-mouse Fc biosensors"}, "B8": {"name": "anti-TIM-3 monoclonal antibody 16-K5-A (antibody, V domains shown)", "VH": "B1 VH", "VL": "B1 VL", "notes": "Mouse hybridoma mAb (parent of the humanized H1L1, H2L1, H5L5, H7L5); captured on anti-mouse Fc biosensors; also called mouse anti-TIM-3 mAb 16-K5-A"}, "B9": {"name": "anti-TIM-3 monoclonal antibody 6-I13-A (antibody, V domains shown)", "VH": "EVQLQQSGPELEKPGASVKISCKASGYSFTGYNMNWVKQSNGKSLEWIGNIDPYYGVTSYNQKFKGKATLTVDKSSSTAYMQLKSLTSEDSAVYYCASYSLTYDGYYPFAYWGQGTLVTVSA", "VL": "DIVLTQSPASLAVSLGQRATISCRASKSVSTSGYSYMHWYQQKPGQPPKLLIYLASNLESGVPARFSGSGSGTDFTLNIHPVEEEDAATYYCQHSRELPYTFGGGTKLEIK", "notes": "as for B7"}, "B10": {"name": "anti-TIM-3 monoclonal antibody 10-O15-A (antibody, V domains shown)", "VH": "QVQLQQSGADLVRPGASVKLSCKALGYTFTDYEMHWVKQTPVHGLEWIGAIHPGSGGTAYNQKFKGKATLTADKSSSTAYMELSSLTSEDSAVYFCSRSYYRYTGYFDVWGAGTTVTVSS", "VL": "B9 VL with T31A, I79V, Y100F, G104S", "notes": "as for B7"}, "B11": {"name": "anti-TIM-3 monoclonal antibody 16-J5-A (antibody, V domains shown)", "VH": "DVQLVESGGGLVQPGGSRKLSCAASGFTFSSFGMNWVRQAPEKGLEWVAYISSGSSTIYYADTVKGRFTISRDNPKNTLFLQMTSLRSEDTAMYYCARWGRWADFDYWGQGTTLTVSS", "VL": "not shown", "notes": "as for B7"}, "B12": {"name": "anti-TIM-3 monoclonal antibody 20-L10-A (antibody, V domains shown)", "VH": "QIQLVQSGPELKKPGETVKISCKASGYTFTNYGMNWVKQAPGKVLKWMVWINTYTGEPTYADDFKGRFAFSLETSASTAYLQINNLKNEDTATYFCARDAMDYWGQGTSVTVSS", "VL": "DVVMTQTPLSLPVSLGDQASISCRSSQSLVHSNGNTYLHWYLQKPGQSPKLLIYKVSNRFSGVPDRFSGSGSGTDFTLKISRVEAEDLGVYFCSQNTHVPWTFGGGTKLEIK", "notes": "as for B7"}, "B13": {"name": "anti-TIM-3 monoclonal antibody 15-L23-A (antibody, V domains shown)", "VH": "B12 VH with K23R, V44G, Y60F, N84I, A100T", "VL": "B12 VL with V2I", "notes": "as for B7"}, "B14": {"name": "anti-TIM-3 monoclonal antibody 8-F3-A (antibody, V domains shown)", "VH": "B12 VH with V44G, V49A, A100L, M101E, S109T, V110L", "VL": "B12 VL with N96T", "notes": "as for B7"}, "B15": {"name": "anti-TIM-3 monoclonal antibody 18-N1-A (antibody, V domains shown)", "VH": "QVQLQQPGAELVRPGVSVKLSCKASGYTFTSYWMHWIKQRPEQGLERIGEINPSNGGTNYNEKFKNKATLTVDKSSSTAYMQLSSLTSEDSAVYYCARSYYTYDAIDYWGQGTSVTVSS", "VL": "DIVMSQSPSSLAVSAGEKVTMSCKSSQSLLNSRTRKNYLAWYQQKPGQSPKLLIYWASTRESGVPDRFTGSGSGTDFTLTISSVQAEDLAVYYCKQSYNLYTFGGGTKLEIK", "notes": "as for B7"}, "B16": {"name": "anti-TIM-3 monoclonal antibody 16-L3-A (antibody, V domains shown)", "VH": "QVQLQQSGPELVKPGASVKMSCKASGYTFTSYYIHWVKQRPGQGLEWIGWIYPGDGSTKYNEKFKGKTTLTADKSSSTAYMLLSSLTSEDSAIYFCATDRYDVAYWGQGTLVTVSA", "VL": "EIVLTQSPALMAASPGEKVTITCSVSSSISSSNLHWYQQKSETSPKPWIYGTSNLASGVPVRFSGSGSGTSYSLTISSMEAEDAATYYCQQWSSYPLTFGAGTKLELK", "notes": "as for B7"}, "B17": {"name": "anti-TIM-3 monoclonal antibody 10-M21-A (antibody, V domains shown)", "VH": "DVQLQESGPTLVKPSQTLSLTCSVTGDSITSGYWNWIRKFPGNKLEYMGYISYSGSTYYNPSLKSRISIIRDTSKNQYYLQLNSVTTEDTATYYCVSGNHFDYWGQGTTLTVSS", "VL": "DIQMTQSPSSLSASLGGKVTITCKASQDINRYIAWYQHKPGKGPRLLIHYTSTLQPGIPSRFSGSGSGRDYSFSISNLEPEDIATYYCLQYDNLLFTFGSGTKLEIK", "notes": "as for B7"}, "B18": {"name": "anti-TIM-3 monoclonal antibody 1-A19-A (antibody, V domains shown)", "VH": "EVQLQQFGAELVKPGASVKISCKASGYTFTDYNMDWVKQSHGKSLEWIGDIDPNYDITTYNQKFKGKATLTVDKSSSTAYMELRSLTSEDTAVYYCARGGHYRYDGYYALDYWGQGTSVTVSS", "VL": "DIVLTQSPASLAVSLGQRATISCKASQSVDYDGDSYMNWYQQKPGQPPKLLIYAASNLESGIPARFSGSGSGTDFTLNIHPVEEEDAATYYCQQSNEDPFTFGSGTKLEIK", "notes": "as for B7"}, "B19": {"name": "7-P15-A (antibody, V domains shown)", "VH": "B12 VH with V44G, V49G, A100L, S109T, V110L", "VL": "B12 VL with S81T, N96S, T97I, W101Y", "notes": "also called anti-TIM-3 monoclonal antibody 7-P15-A"}, "B20": {"name": "18-O22-A (antibody, V domains shown)", "VH": "EVQLQQSGPELVKPGASVKVSCKASGYTFTSYVMHWVKQKPGQGLEWIGYINPYNDVTKYNEKFKGKATLTSDKSSSTAYMELSSLTSEDSAVYYCARSSDYDDGHWYFDVWGAGTTVTVSS", "VL": "DIVLTQSPASLAVSLGQRATISCKASQSVDYDGESYMNWYQQKPGQPPKLLIYVASNLESGIPVRFSGSGSGTDFTLNIHPVEEEDAATYYCQQSNEDPTWTFGGGTKLEIK", "notes": "also called anti-TIM-3 monoclonal antibody 18-O22-A"}, "B21": {"name": "7-N2-A (antibody, V domains shown)", "VH": "QVQLKESGPGLVAPSQSLSITCTVSGFSLTGFGVNWVRQPPGKGLEWLGMIWGDGSTDYNSTLKSRLSISKDNSKSQVFLKMNSLQTDDTARYYCARDYYGYVGNAMDYWGQGTSVTVSS", "VL": "DIVMSQSPSSLAVSAGEKVTMSCKSSQSLLNSRTRKNYLAWYQQKPGQSPKLLIYWASTRESGVPDRFTGSGSGTDFTLTISSVQAEDLAVYYCKQSYNHMYTFGGGTKLEIK", "notes": "also called anti-TIM-3 monoclonal antibody 7-N2-A"}, "B22": {"name": "6-H6-A (antibody, V domains shown)", "VH": "B18 VH with I57S, L110M", "VL": "DIVLTQSPASSAVSLGQRATFSCRASQSVSTSSYSFMHWYQQKPGQPPKLLIKYASNLESGVPARFSGSGSGTDFTLNIHPVEEEDTATYYCQHSWEIPPTFGGGTNLEIK", "notes": "also called anti-TIM-3 monoclonal antibody 6-H6-A"}}, "note": "Residue numbers refer to the chain shown, from its start.", "data": [{"biological_target": "T1, human T-cell immunoglobulin and mucin-domain containing molecule 3 (TIM-3) (human, UniProt Q8TDQ0 22-200, limits assumed)", "T1 construct": "also called Human TIM-3", "test": "ELISA, recombinant human TIM-3(ECD)-6His coated on the plate, anti-human IgG-HRP detection, absorbance at 450 nm", "units": {"EC50 (read off the curve)": "nM"}, "procedure": "(§1) Recombinant human TIM-3(ECD)-6His in carbonate coating buffer was coated on an ELISA plate at 4° C. overnight.", "values": [{"binder": "B1", "EC50 (read off the curve)": "~0.2"}, {"binder": "B2", "EC50 (read off the curve)": "~0.2"}, {"binder": "B3", "EC50 (read off the curve)": "~0.1"}]}, {"biological_target": "T1, human T-cell immunoglobulin and …", "test": "ELISA, recombinant human TIM-3(ECD)-6His coated on the plate, anti-human IgG-HRP detection, absorbance at 450 nm", "remark": "another data set of the same source", "units": {"EC50 (read off the curve)": "nM"}, "procedure": "as §1", "values": [{"binder": "B1", "EC50 (read off the curve)": "~0.09"}, {"binder": "B4", "EC50 (read off the curve)": "~0.07"}, {"binder": "B5", "EC50 (read off the curve)": "~0.09"}]}, {"biological_target": "T1, human T-cell immunoglobulin and …", "test": "competition ELISA: pre-equilibrated mixture of mAb and human TIM3(ECD)-huFc on plate-coated phosphatidylserine (PtdSer, a lipid), anti-huFc-HRP detection, % inhibition", "units": {"IC50 (read off the curve)": "nM"}, "procedure": "(§2) ELISA plates were coated with PtdSer or PtdChol, washed and incubated with a pre-equilibrated mixture of purified antibodies at various concentrations and TIM3(ECD)-huFc. The plates were washed and then the signal was detected by incubation with HRP-coupled anti-huFc secondary antibody and then a HRP substrate. TIM-3 binding to PtdSer was used as 100% signal and TIM-3 binding to PtdChol as zero (background) to calculate percent of inhibition by a given mAb.\n(§3) To determine the effect of anti-TIM-3 antibodies on the interaction of TIM-3 with phosphatidylserine (PtdSer), 384-well ELISA plates were coated with PtdSer or phosphatidylcholine (PtdChol) at room temperature. The wells were washed using PBS supplemented with 0.1% Tween-20 and then blocked using PBS supplemented with 2% bovine serum albumin (BSA). […] The plates were washed and then incubated with HRP-coupled anti-huFc secondary antibody. Plates were washed, incubated with an HRP substrate, and read using a POLARstar Omega Microplate (BMG LABTECH). The assay was performed in triplicate.", "values": [{"binder": "B6", "IC50 (read off the curve)": "~7"}, {"binder": "B7", "IC50 (read off the curve)": "~6"}]}, {"biological_target": "T1, human T-cell immunoglobulin and …", "test": "BLI (OCTET Red96), mAb on anti-mouse Fc biosensor, antigen in solution, 1:1 model", "units": {"Kd": "nM"}, "procedure": "Binding experiments were performed on OCTET Red96 at 25° C. Antibodies were loaded onto Anti-Mouse Fc (AMC) biosensors. Loaded sensors were dipped into serial dilutions of antigen. Kinetic constants were calculated using a monovalent (1:1) model. The assay buffer was PBS supplemented with 0.1% BSA, 500 mM NaCl, 0.02% Tween-20, pH 7.2.", "values": [{"binder": "B8", "Kd": 7.9}, {"binder": "B9", "Kd": 9.9}, {"binder": "B10", "Kd": 3.1}, {"binder": "B11", "Kd": 2.7}, {"binder": "B7", "Kd": 1.8}, {"binder": "B12", "Kd": 10}, {"binder": "B13", "Kd": 13}, {"binder": "B14", "Kd": 1.6}, {"binder": "B15", "Kd": 1.1}, {"binder": "B16", "Kd": 14}, {"binder": "B17", "Kd": 16}, {"binder": "B18", "Kd": 2.2}]}, {"biological_target": "T1, human T-cell immunoglobulin and …", "test": "competition ELISA: pre-equilibrated mixture of mAb and human TIM3(ECD)-huFc on plate-coated phosphatidylserine (PtdSer, a lipid), anti-huFc-HRP detection, % inhibition", "remark": "another data set of the same source", "procedure": "as §2, §3", "values": [{"binder": "B19", "binding result": "binds"}, {"binder": "B20", "binding result": "binds"}]}, {"biological_target": "T1, human T-cell immunoglobulin and …", "test": "competition ELISA: pre-equilibrated mixture of mAb and human TIM3(ECD)-huFc on plate-coated phosphatidylserine (PtdSer, a lipid), anti-huFc-HRP detection, % inhibition", "remark": "another data set of the same source", "units": {"IC50 (read off the curve)": "nM"}, "procedure": "as §2, §3", "values": [{"binder": "B9", "IC50 (read off the curve)": "~4"}, {"binder": "B21", "IC50 (read off the curve)": "~7"}, {"binder": "B22", "binding result": "binds"}]}]}
